Key:
[1] = target: T1, human CCR8 (human, UniProt P51685 1-355); assay: flow blocking, PBMC CCR8+CD4+; competitor PE-AB12
T1 construct: Native CCR8 on human PBMC (CCR8+ CD3+ or CCR8+ CD4+ lymphocytes); also called chemokine (C-C motif) receptor 8
Method: (§1) For blocking studies, 100 μL of the cell suspension were incubated with 10 μg purified isotype control, AB1, AB2, AB3, AB4, AB5, AB8, AB9, AB10, AB11, AB12, AB13, AB14, AB15, and Commercial ABI antibodies, or isotype control, as blocking agents.
(§2) After incubation with the blocking agent, the cells were incubated with 0.25 μg of the indicated PE-conjugated antibody plus anti-human CD4 APC or anti-human CD3 for another 15 minutes in the dark and then washed 2 times with Cell Staining Buffer, and acquired in a FACSCanto II flow cytometer (BD Biosciences); the data was analyzed using FCS Express (De Novo Software); MFI correspond to the CCR8+ CD4+ lymphocytes or CCR8+ CD3+ lymphocytes.
(§3) Percentage original MFI was calculated by dividing the MFI of samples blocked with AB1, AB2, AB3, AB4, AB5, AB6, AB7, AB8, AB9, AB10, AB11, AB12, AB13, AB14, AB15, and Commercial ABI antibodies, by the MFI of samples blocked with the corresponding isotype control. This value was subtracted from 100 to get a blocking percentage. The formula is shown below: […]

[2] = target: T1, human CCR8; assay: flow blocking, PBMC CCR8+CD3+; competitor PE-AB6
Method: as §1, §2, §3

[3] = target: T1, human CCR8; assay: flow blocking, PBMC CCR8+CD3+; competitor PE-AB10
Method: as §1, §2, §3

[4] = target: T1, human CCR8; assay: flow blocking, PBMC CCR8+CD4+; competitor PE-AB11
Method: as §1, §2, §3

[5] = target: T1, human CCR8; assay: flow blocking, PBMC CCR8+CD3+; competitor PE-AB8
Method: as §1, §2, §3

[6] = target: T1, human CCR8; assay: flow blocking, PBMC CCR8+CD3+; competitor PE-AB14
Method: as §1, §2, §3

[7] = target: T1, human CCR8; assay: flow blocking, PBMC CCR8+CD3+; competitor PE-AB7
Method: as §1, §2, §3

[8] = target: T1, human CCR8; assay: flow blocking, PBMC CCR8+CD4+; competitor PE-AB2
Method: as §1, §2, §3

[9] = target: T1, human CCR8; assay: flow blocking, PBMC CCR8+CD4+; competitor PE-AB1
Method: as §1, §2, §3

[10] = target: T1, human CCR8; assay: flow blocking, PBMC CCR8+CD3+; competitor PE-AB13
Method: as §1, §2, §3

[11] = target: T1, human CCR8; assay: flow blocking, PBMC CCR8+CD4+; competitor PE-AB10
Method: as §1, §2, §3

[12] = target: T1, human CCR8; assay: flow blocking, PBMC CCR8+CD4+; competitor PE-AB15
Method: as §1, §2, §3

[13] = target: T1, human CCR8; assay: flow blocking, PBMC CCR8+CD4+; competitor PE-AB5
Method: as §1, §2, §3

[14] = target: T1, human CCR8; assay: flow blocking, PBMC CCR8+CD4+; competitor PE-AB14
Method: as §1, §2

[15] = target: T1, human CCR8; assay: flow blocking, PBMC CCR8+CD3+; competitor PE-AB12
Method: as §1, §2, §3

[16] = target: T1, human CCR8; assay: flow blocking, PBMC CCR8+CD4+; competitor PE-AB3
Method: as §1, §2, §3

[17] = target: T1, human CCR8; assay: flow blocking, PBMC CCR8+CD3+; competitor PE-L263G8
Method: as §1, §2, §3

[18] = target: T1, human CCR8; assay: flow blocking, PBMC CCR8+CD4+; competitor PE-AB13
Method: as §1, §2

[19] = target: T1, human CCR8; assay: flow blocking, PBMC CCR8+CD3+; competitor PE-433H
Method: as §1, §2, §3

[20] = target: T1, human CCR8; assay: flow blocking, PBMC CCR8+CD4+; competitor PE-AB6
Method: as §1, §2

[21] = target: T1, human CCR8; assay: flow blocking, PBMC CCR8+CD3+; competitor PE-AB5
Method: as §1, §2, §3

[22] = target: T1, human CCR8; assay: flow blocking, PBMC CCR8+CD3+; competitor PE-AB11
Method: as §1, §2, §3

[23] = target: T1, human CCR8; assay: flow blocking, PBMC CCR8+CD4+; competitor PE-433H
Method: as §1, §2

[24] = target: T1, human CCR8; assay: flow blocking, PBMC CCR8+CD4+; competitor PE-AB4
Method: as §1, §2, §3

[25] = target: T1, human CCR8; assay: flow blocking, PBMC CCR8+CD3+; competitor PE-AB15
Method: as §1, §2, §3

T1 sequence (P51685 whole entry): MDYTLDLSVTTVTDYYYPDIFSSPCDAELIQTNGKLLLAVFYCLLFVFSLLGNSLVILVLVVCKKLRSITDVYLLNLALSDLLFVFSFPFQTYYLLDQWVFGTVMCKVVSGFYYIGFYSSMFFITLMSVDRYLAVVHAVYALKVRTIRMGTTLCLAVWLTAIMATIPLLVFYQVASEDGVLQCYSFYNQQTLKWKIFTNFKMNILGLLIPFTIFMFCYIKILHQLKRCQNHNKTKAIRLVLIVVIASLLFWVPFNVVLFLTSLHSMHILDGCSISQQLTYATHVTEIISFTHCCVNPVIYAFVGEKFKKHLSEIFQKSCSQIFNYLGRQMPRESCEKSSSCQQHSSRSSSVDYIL

B1: AB8 (antibody, V domains shown)
VH: AVQLVESGGGLVQPKESLKISCAASGFIFSNAAMYWVRQAPGKGLQWVARIRTKPKNYATYYIDSVKGRFTISRDDSKSMVYLQMDNLKTEDTAMYYCNTMGLTRAYYFDYWGQGVMVTVSS
VL: DIQMTQSPSFLSASVGDRVTINCKASQNINRYLNWYQQKLGEAPKLLIYNANSLQTGIPSRFSGSGSGTDFTLTIRSLQPEDVATYFCLQHNSWPWTFGGGTKLELK
notes: Hybridoma monoclonal; also called antibody 8; clone 8
% Blocking [1]: 98.9%
% Positive cells [1]: 0.02%
% Blocking [2]: -17.3%
MFI [2]: 1080
% Blocking [3]: 23.7%
MFI [3]: 608
% Blocking [4]: 98.5%
% Positive cells [4]: 0.03%
% Blocking [5]: 26.9%
MFI [5]: 870
% Blocking [6]: 46.4%
MFI [6]: 463
% Blocking [7]: 26.1%
MFI [7]: 863
% Blocking [8]: -38.4%
% Positive cells [8]: 2.27%
% Blocking [9]: -41.9%
% Positive cells [9]: 2.2%
% Blocking [10]: -50.2%
MFI [10]: 1330
% Blocking [11]: 91.2%
% Positive cells [11]: 0.13%
% Blocking [12]: 98.5%
% Positive cells [12]: 0.02%
% Blocking [13]: -8.42%
% Positive cells [13]: 2.19%
% Blocking [14]: 96.9%
% Positive cells [14]: 0.04%
% Blocking [15]: 48.4%
MFI [15]: 527
% Blocking [16]: -27.5%
% Positive cells [16]: 2.18%
% Blocking [17]: 13.1%
MFI [17]: 585
% Blocking [18]: 93.4%
% Positive cells [18]: 0.13%
% Blocking [19]: 53%
MFI [19]: 417
% Blocking [20]: -14.4%
% Positive cells [20]: 2.31%
% Blocking [21]: -11.8%
MFI [21]: 1100
% Blocking [22]: 45.9%
MFI [22]: 502
% Blocking [23]: 92.6%
% Positive cells [23]: 0.13%
% Blocking [24]: -19.7%
% Positive cells [24]: 2.13%
% Blocking [25]: 45.2%
MFI [25]: 471

B2: AB5 (antibody, V domains shown)
VH: QVQLKESGPGLVQPSQTLSLTCTVSGFSLTSYHVSWVRQPPGKGLEWMGVIWTGGSTTYNSLLKSRLSISRDISKSQVFLKMNSLQTEDTATYYCARGGTVVKGGFAYWGQGTLVTVSS
VL: DIQMTQSPASLSASLEEIVTITCQASQDIGNRLSWYQQKPGKSPQLLIYGATSLADGVPSRFSGSRSGTQYSLKISRLQVEDIGIYYCLQAYSTPLTFGSGTKLEIK
notes: Hybridoma monoclonal; Same VH/VL entries as AB6; also called antibody 5; clone 5
% Blocking [1]: 0%
% Positive cells [1]: 1.8%
% Blocking [2]: 37.3%
MFI [2]: 579
% Blocking [3]: -20.7%
MFI [3]: 962
% Blocking [4]: -6.12%
% Positive cells [4]: 2.08%
% Blocking [5]: 5.47%
MFI [5]: 1120
% Blocking [6]: 0.46%
MFI [6]: 860
% Blocking [7]: -3.38%
MFI [7]: 1210
% Blocking [8]: 98.8%
% Positive cells [8]: 0.02%
% Blocking [9]: 72.3%
% Positive cells [9]: 0.43%
% Blocking [10]: -7.01%
MFI [10]: 947
% Blocking [11]: 5.41%
% Positive cells [11]: 1.4%
% Blocking [12]: -29.5%
% Positive cells [12]: 1.67%
% Blocking [13]: 91.1%
% Positive cells [13]: 0.18%
% Blocking [14]: -25.4%
% Positive cells [14]: 1.63%
% Blocking [15]: -11.3%
MFI [15]: 1140
% Blocking [16]: 95.9%
% Positive cells [16]: 0.07%
% Blocking [17]: -14.2%
MFI [17]: 769
% Blocking [18]: 27.8%
% Positive cells [18]: 1.43%
% Blocking [19]: -5.58%
MFI [19]: 936
% Blocking [20]: 95.5%
% Positive cells [20]: 0.09%
% Blocking [21]: 14.8%
MFI [21]: 840
% Blocking [22]: -9.7%
MFI [22]: 1020
% Blocking [23]: 12.5%
% Positive cells [23]: 1.54%
% Blocking [24]: 93.3%
% Positive cells [24]: 0.12%
% Blocking [25]: -1.63%
MFI [25]: 873

Reference: US20240360228A1 (BIOLEGEND, published 2024)
